B1: Hairpin Ribozyme (parent)
chain: GUCCUCUUUCACGUGCGCGUGAAAGAGAGAAGUGAACCAGAGAAACACACGUUGUGGUAUAUUACCUGGUA

The variants in the data set derive from B1. Nature of the data set: self-cleavage, relative activity (ratio to wild type); higher = more cleavage; co-transcriptional.
As to A44U A61G, the self-cleavage is 0.124. For U14G U67A the value was 0.186.

With A11G G27A, the self-cleavage turned out to be 0.353. For C3A U5C the value was 0.247; for G29A A61G, 0.125; for C12U G27C, 0.15. As to G13C G34C, the self-cleavage was 1.1. For G13A G17A the value was 0.747; for C18A U52A, 1.07; for A64U G68C, 0.213. Turning to G1U U20G, the self-cleavage was 0.0885. Under A23G C50U stands 0.43; under C46G U62A, 0.148. With U33G G57A, the self-cleavage came out at 0.115. For U14A G51A the value was 0.957. As to A31C U63A, the self-cleavage was determined as 0.162. Under G69U U70A stands 0.346; under G27U C38U, 0.157; under G13C C37G, 0.183. U8C C38A: the self-cleavage turned out to be 0.215. Regarding A41C A43G, the self-cleavage was found to be 0.191. Regarding G42U U63G, the self-cleavage was found to be 0.168.

Consider A28U U60A, for which the self-cleavage is 0.493. For U7A U9A, the self-cleavage amounted to 0.666. Turning to U67C A71C, the self-cleavage was found to be 0.359.

Turning to U5A C10U, the self-cleavage stood at 0.333.

For C3U G19C, the self-cleavage amounted to 0.373. Under U58A U60G stands 0.646; under C37A U52G, 0.224; under C6A U14G, 0.499. Turning to G17A U20A, the self-cleavage is 0.759. For the variant A11U G15A, the self-cleavage is 0.849.

Consider G27U U58G, for which the self-cleavage was found to be 0.225. For the variant G25U G42A, the self-cleavage amounted to 0.144.

A36C A64U: the self-cleavage was 0.309. For C10G A28C the value was 0.306; for C37A A64U, 0.392; for U5G A41C, 0.571. Under A59C A64C stands 0.111; under G15A A24G, 0.963. For C4G A23U the value was 0.147; for G29C A36G, 0.18; for G15C G25U, 0.637. Turning to U53G G57C, the self-cleavage stood at 0.202. For A64C U70G the value was 0.127. In the case of A43G U67C, the self-cleavage was found to be 0.153. Under G21U G34A stands 1.01; under C12U U63G, 0.162. A26C U67G: the self-cleavage amounted to 0.196. With A26G U58C, the self-cleavage was determined as 1.02. As for A36C G54U, the self-cleavage stood at 0.33. Under A43U G57U stands 0.152; under C48U G54C, 0.129; under U20A C48G, 0.219. G17C A22C: the self-cleavage was 0.75.

As to G13U U58A, the self-cleavage worked out at 0.808. For U14G U58A the value was 0.753; for G13U A47G, 0.143. Regarding G1A G15A, the self-cleavage turned out to be 0.208. On to A49U U52A, for which the self-cleavage is 0.209. For U20C C50U the value was 0.476; for C48U G69C, 0.124.

Regarding A23G A31U, the self-cleavage is 0.0848. Take G25C G51U: the self-cleavage came to 0.624.

With G29U U70C, the self-cleavage is 0.127.

For A26G A43G, the self-cleavage stood at 0.114. Under A45U C66U stands 0.117. For C3G C18U the value was 0.341; for A26U A71U, 0.433.

Regarding G13U G42C, the self-cleavage was 0.227. With A47U C65G, the self-cleavage was 0.139.

For the variant U14G U70G, the self-cleavage worked out at 0.659. Under G1A U53A stands 0.12.

As for U8A A49U, the self-cleavage stood at 0.148. As for U33A U62C, the self-cleavage was 0.184. For G40C A44C the value was 0.0317.

Turning to A39C A71C, the self-cleavage was 0.88.

On to C16U A23G, for which the self-cleavage stood at 1. As to U14C A61C, the self-cleavage came out at 0.162.

In the case of A31C A36C, the self-cleavage is 0.123. For A26C A47U the value was 0.0646. Regarding G21C A44U, the self-cleavage came out at 0.0331. For G15A G29C the value was 0.106; for A30C U53G, 0.284; for G29U A49G, 0.173. For C46U A64C the value was 0.0758; for U20C A71C, 1.28; for U53G G68U, 0.187.

Turning to A26G A35C, the self-cleavage is 0.799. Under A43G U55G stands 0.128.

Consider A11G U14A, for which the self-cleavage came out at 0.916. On to G21C G51A, for which the self-cleavage came out at 0.914. Turning to C16A U67G, the self-cleavage worked out at 0.182.

A61U U63A: the self-cleavage is 0.123.

In the case of U9A G13U, the self-cleavage stood at 0.479. A11G G25A: the self-cleavage stood at 0.43. For U14A G17A the value was 1.03; for U20G C66G, 0.219; for A35U A49U, 0.155.

In the case of A64G G68U, the self-cleavage was 0.19. With A45G C46A, the self-cleavage turned out to be 0.17. Under G32U A64G stands 0.162; under A44U C46U, 0.193. For A26G G68U the value was 0.131; for G32C U33G, 0.12.

Take U5A A59U: the self-cleavage came to 0.153.

Regarding G15U G34U, the self-cleavage was determined as 1.46. In the case of G15A U63C, the self-cleavage was determined as 0.0715.

For the variant U7G A71G, the self-cleavage was determined as 1.06.

Consider U5G C18G, for which the self-cleavage worked out at 0.577. U2G U70G: the self-cleavage was 0.244. Regarding U33G A36G, the self-cleavage stood at 0.0878. Under U7C U20G stands 0.751; under A47U C48G, 0.137; under A36U G57A, 0.108. Take A36U G57U: the self-cleavage came to 0.209. For U2G A22G, the self-cleavage amounted to 0.264. On to A11U G25C, for which the self-cleavage was 0.205.

In the case of G13A U63C, the self-cleavage is 0.175. On to G32A C48A, for which the self-cleavage is 0.128. A44G C50U: the self-cleavage was 0.134. Under C18G A26U stands 0.512; under C10U G34A, 1.04; under U5C G69A, 0.158. Consider U7C G56U, for which the self-cleavage was determined as 0.188. On to G21A U60C, for which the self-cleavage was 0.956. Under C16A A30G stands 0.11. For the variant A41G A64G, the self-cleavage worked out at 0.326. For U20C C46G the value was 0.117; for G29U A39U, 0.0632; for C12G G19C, 1.24.

On to G42C C48U, for which the self-cleavage stood at 0.143.

In the case of A36C A71C, the self-cleavage stood at 0.975. Under G21C C46A stands 0.0884; under G13U A43U, 0.127; under C10G U62G, 0.138. For A35G A39G the value was 0.348. On to C12U G32A, for which the self-cleavage stood at 0.134. In the case of A31G C48A, the self-cleavage was 0.164.

Regarding U7G A26C, the self-cleavage turned out to be 0.0432. Turning to U7G U70C, the self-cleavage turned out to be 0.838. For U7C C66U, the self-cleavage is 0.542. Take C3A A44C: the self-cleavage is 0.123. For the variant G15U C37A, the self-cleavage amounted to 0.386. Under G19U A59C stands 0.242; under G42U U55A, 0.069. For U53A A61G the value was 0.0972; for C16U G54A, 0.518.

For the variant G19C A24U, the self-cleavage was 0.533.

As to C10A A64G, the self-cleavage came out at 0.397. A26U A45C: the self-cleavage stood at 0.223.

Regarding C6A U7C, the self-cleavage amounted to 0.609.

G25U G32A: the self-cleavage was determined as 0.128. As to A36U A64C, the self-cleavage came out at 0.0976.

In the case of U2A G54C, the self-cleavage turned out to be 0.145. Consider C10G U14G, for which the self-cleavage was 0.378. On to G13U G15U, for which the self-cleavage was 0.941. Under G13A U60A stands 0.714; under U5A C48G, 0.0819. Under A22C C38G stands 0.215; under A22C C38U, 0.552. Under G56U U58C stands 0.0906.

As to C10A G68A, the self-cleavage was determined as 0.177. For G21C A39U the value was 0.46; for A28C A61U, 0.272. For A11G A43U the value was 0.199; for U9C C12A, 0.789.
